In the assay the target is T1, Mas70p (S. cerevisiae (endogenous in yeast …, UniProt P07213 1-617)).
T1 sequence (looked up): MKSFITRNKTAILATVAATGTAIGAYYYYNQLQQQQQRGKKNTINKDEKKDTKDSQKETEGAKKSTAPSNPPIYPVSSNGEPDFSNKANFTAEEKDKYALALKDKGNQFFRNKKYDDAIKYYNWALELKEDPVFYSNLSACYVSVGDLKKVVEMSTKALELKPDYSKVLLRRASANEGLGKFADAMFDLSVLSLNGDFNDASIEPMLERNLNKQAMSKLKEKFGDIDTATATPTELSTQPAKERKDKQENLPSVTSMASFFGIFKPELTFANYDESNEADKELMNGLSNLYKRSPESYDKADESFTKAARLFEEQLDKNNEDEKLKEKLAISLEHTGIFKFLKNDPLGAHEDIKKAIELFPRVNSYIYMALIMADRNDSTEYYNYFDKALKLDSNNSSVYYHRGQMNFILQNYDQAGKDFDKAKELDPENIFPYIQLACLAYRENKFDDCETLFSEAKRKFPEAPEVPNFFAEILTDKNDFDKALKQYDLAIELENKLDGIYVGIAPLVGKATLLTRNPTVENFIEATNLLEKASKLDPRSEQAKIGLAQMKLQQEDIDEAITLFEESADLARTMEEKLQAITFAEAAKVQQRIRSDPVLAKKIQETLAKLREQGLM
Briefly: co-IP.

Data on one molecule can be found in article PMC2120374 (The Journal of Cell Biology, 1995).

B1: Mas37p (natural protein)
chain: MVKGSVHLWGKDGKASLISVDSIALVWFIKLCTSEEAKSMVAGLQIVFSNNTDLSSDGKLPVLILDNGTKVSGYVNIVQFLHKNICTSKYEKGTDYEEDLAIVRKKDRLLEYSLLNYVDVEISRLTDYQLFLNTKNYNEYTKKLFSKLLYFPMWYNTPLQLRSQARENCEEIIGSLTLEDDEEFVESKAMESASQLAQSKTFKIAHKNKIKGKQELQQVKYNLQFDNRLQSCVSNWLAARKKLDDSVILSSDLLFLANLYVQLGLPDGNRIRSKLEQTFGSELLNSMSNKIDDFVHRPSNNLEQRDPQFREQGNVVMSLYNLACKYI
As for B1, the “stoichiometry N” value was found to be 1 mol Mas37p per mol Mas70p.

As usually defined, the stoichiometry N is a count of units in the complex or per binding partner.
